Test results taken from patent EP2373335B1 (Eli Lilly and Company, dated 2016).

Experiments:
human ferroportin 1 [1] = target: T1, human ferroportin 1 (human, UniProt Q9NP59 1-571); experiment: cell-based or functional assay
T1 sequence: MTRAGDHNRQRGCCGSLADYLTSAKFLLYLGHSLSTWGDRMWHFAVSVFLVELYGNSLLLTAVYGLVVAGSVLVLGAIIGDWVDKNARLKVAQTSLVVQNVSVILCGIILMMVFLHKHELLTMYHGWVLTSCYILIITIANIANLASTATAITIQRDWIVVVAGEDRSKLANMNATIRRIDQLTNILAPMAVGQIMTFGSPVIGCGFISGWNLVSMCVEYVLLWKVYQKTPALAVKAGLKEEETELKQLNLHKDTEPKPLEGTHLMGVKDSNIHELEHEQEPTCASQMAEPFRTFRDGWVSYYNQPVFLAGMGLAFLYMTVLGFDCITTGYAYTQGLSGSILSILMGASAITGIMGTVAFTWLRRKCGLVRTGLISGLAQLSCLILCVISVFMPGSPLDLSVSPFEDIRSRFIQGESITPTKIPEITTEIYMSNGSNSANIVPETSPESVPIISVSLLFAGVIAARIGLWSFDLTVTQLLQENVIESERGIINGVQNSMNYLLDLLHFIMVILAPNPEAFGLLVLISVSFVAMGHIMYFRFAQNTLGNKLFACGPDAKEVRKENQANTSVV

FPN1-GFP [2] = target: T2, FPN1-GFP (human, UniProt Q9NP59 1-571, A GFP reporter is fused to the C terminus of FPN1. Its letters are not given, so it is left out.); experiment: cell-based or functional assay
T2 sequence: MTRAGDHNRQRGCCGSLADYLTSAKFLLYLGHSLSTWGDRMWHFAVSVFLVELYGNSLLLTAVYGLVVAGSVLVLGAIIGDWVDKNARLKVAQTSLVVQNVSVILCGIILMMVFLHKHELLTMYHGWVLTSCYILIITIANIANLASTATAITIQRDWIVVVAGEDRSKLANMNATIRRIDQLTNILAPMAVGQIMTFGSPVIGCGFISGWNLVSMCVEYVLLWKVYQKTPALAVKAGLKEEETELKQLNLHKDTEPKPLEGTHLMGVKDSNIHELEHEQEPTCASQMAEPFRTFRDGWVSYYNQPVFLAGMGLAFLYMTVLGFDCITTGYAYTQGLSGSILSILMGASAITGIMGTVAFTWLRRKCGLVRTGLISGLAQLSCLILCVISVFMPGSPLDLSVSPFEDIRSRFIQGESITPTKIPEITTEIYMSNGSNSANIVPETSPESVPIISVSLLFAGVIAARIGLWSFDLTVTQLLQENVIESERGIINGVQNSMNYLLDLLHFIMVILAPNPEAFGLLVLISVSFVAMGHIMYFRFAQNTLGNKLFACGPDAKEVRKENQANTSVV

human ferroportin 1 [3] = target: T1, human ferroportin 1; experiment: inhibition of 30 nM biotinylated hepcidin binding to FPN/293 cells, ELISA read-out; antibody at 125 nM; mean
human ferroportin 1 [4] = target: T1, human ferroportin 1; experiment: inhibition of 30 nM biotinylated hepcidin binding to FPN/293 cells, ELISA read-out; antibody at 500 nM; mean
human ferroportin 1 [5] = target: T1, human ferroportin 1; experiment: inhibition of 30 nM biotinylated hepcidin binding to FPN/293 cells, ELISA read-out; antibody at 7.8 nM; mean
human ferroportin 1 [6] = target: T1, human ferroportin 1; experiment: inhibition of 30 nM biotinylated hepcidin binding to FPN/293 cells, ELISA read-out; antibody at 2000 nM; mean
human ferroportin 1 [7] = target: T1, human ferroportin 1; experiment: inhibition of 30 nM biotinylated hepcidin binding to FPN/293 cells, ELISA read-out; antibody at 31.25 nM; mean
FPN1-GFP [8] = target: T2, FPN1-GFP; experiment: cell-based or functional assay; remark: listed apart in the source
FPN1-GFP [9] = target: T2, FPN1-GFP; experiment: SPR (Biacore T100) at 37 °C; FPN1-GFP captured on rabbit anti-GFP antibody; KD of Fab 1G9 against KD of Fab 34A9

| Molecule | Absolute IC50 (FPN1-GFP [2]) [nM] | Relative IC50 (FPN1-GFP [2]) [nM] | Top % Inhibition (hepcidin-25-induced internalization and degradation of FPN1-GFP) (FPN1-GFP [2]) [%] | EC50 (nM); inhibition of hepcidin induced ferritin increase in Caco-2 cells (human ferroportin 1 [1]) [nM] | % Inhibition (human ferroportin 1 [3]) [%] | % Inhibition (human ferroportin 1 [4]) [%] | % Inhibition (human ferroportin 1 [5]) [%] | % Inhibition (human ferroportin 1 [6]) [%] | % Inhibition (human ferroportin 1 [7]) [%] | Percent (%) Inhibition of Mature Human Hepcidin-induced Internalization and Degradation In Vitro; Mab at 7.4 nM (FPN1-GFP [8]) [%] | Percent (%) Inhibition of Mature Human Hepcidin-induced Internalization and Degradation In Vitro; Mab at 22 nM (FPN1-GFP [8]) [%] | Percent (%) Inhibition of Mature Human Hepcidin-induced Internalization and Degradation In Vitro; Mab at 67 nM (FPN1-GFP [8]) [%] | Percent (%) Inhibition of Mature Human Hepcidin-induced Internalization and Degradation In Vitro; Mab at 200 nM (FPN1-GFP [8]) [%] | Percent (%) Inhibition of Mature Human Hepcidin-induced Internalization and Degradation In Vitro; Mab at 600 nM (FPN1-GFP [8]) [%] | also measured |
| --- | --- | --- | --- | --- | --- | --- | --- | --- | --- | --- | --- | --- | --- | --- | --- |
| Mouse IgG1, a negative control (antibody) |  |  |  |  |  |  |  |  |  |  |  |  |  |  | % Inhibition; ferritin in Caco-2 cells with 100 nM hepcidin; 6.25 µg/mL mIgG1 (human ferroportin 1 [1]): 0%; % Inhibition; ferritin in Caco-2 cells with 100 nM hepcidin; 12.5 µg/mL mIgG1 (human ferroportin 1 [1]): 0%; % Inhibition; ferritin in Caco-2 cells with 100 nM hepcidin; 25 µg/mL mIgG1 (human ferroportin 1 [1]): 7.2%; % Inhibition; ferritin in Caco-2 cells with 100 nM hepcidin; 50 µg/mL mIgG1 (human ferroportin 1 [1]): 0%; % Inhibition; ferritin in Caco-2 cells with 100 nM hepcidin; 100 µg/mL mIgG1 (human ferroportin 1 [1]): 3.5%; % Inhibition; ferritin in Caco-2 cells with 100 nM hepcidin; 200 µg/mL mIgG1 (human ferroportin 1 [1]): 11.6%; Ferritin (ng)/ protein (µg); Caco-2 cells with 100 nM hepcidin; 6.25 µg/mL mIgG1 (human ferroportin 1 [1]): 10.4 ng/µg; Ferritin (ng)/ protein (µg); Caco-2 cells with 100 nM hepcidin; 12.5 µg/mL mIgG1 (human ferroportin 1 [1]): 10 ng/µg; Ferritin (ng)/ protein (µg); Caco-2 cells with 100 nM hepcidin; 25 µg/mL mIgG1 (human ferroportin 1 [1]): 9.6 ng/µg; Ferritin (ng)/ protein (µg); Caco-2 cells with 100 nM hepcidin; 50 µg/mL mIgG1 (human ferroportin 1 [1]): 10.1 ng/µg; Ferritin (ng)/ protein (µg); Caco-2 cells with 100 nM hepcidin; 100 µg/mL mIgG1 (human ferroportin 1 [1]): 9.78 ng/µg; Ferritin (ng)/ protein (µg); Caco-2 cells with 100 nM hepcidin; 200 µg/mL mIgG1 (human ferroportin 1 [1]): 9.4 ng/µg |
| Mab 4A10-3 (antibody, human IgG4 S228P, kappa, F234A L235A, V domains shown) VH: QVQLVQSGAEVKKPGSSVKVSCKASGYAFTSFLIEWVRQAPGQGLEWMGTSNPRTGGRKYKEKFRGRVTITADKSTSTAYMELSSLRSEDTAVYYCAREFFDYWGQGTTVTVSS VL: DIQMTQSPSSLSASVGDRVTITCRASKSISKYTAWYQQKPGKAPKLLIYAGSKLHWGVPSRFSGSGSGTDFTLTISSLQPEDFATYYCQQHNEYPYTFGGGTKVEIKR | 5.7 | 4.7 | 85.9 | 37 | 59.3 | 84.9 | 5.4 | 95.3 | 13.4 |  |  |  |  |  |  |
| Mab Combi11 (antibody, human IgG4 S228P, kappa, F234A L235A, V domains shown) VH: QVQLVQSGAEVKKPGSSVKVSCKASGYAFTSFLIEWVRQAPGQGLEWMGTSNPRTGRTKYKSKFRGRVTITADKSTSTAYMELSSLRSEDTAVYYCAREFFDYWGQGTTVTVSS VL: DIQMTQSPSSLSASVGDRVTITCRASKSISKYTAWYQQKPGKAPKLLIYAGSKRHWGVPSRFSGSGSGTDFTLTISSLQPEDFATYYCQQHNEYPYTFGGGTKVEIKR | 3.8 | 3.7 | 92.6 | 28 | 88.4 | 81.6 | 18.7 | 79.9 | 32.1 |  |  |  |  |  |  |
| Mab L2.2-4 (antibody, human IgG4 S228P, kappa, F234A L235A, V domains shown) VH: QVQLVQSGAEVKKPGSSVKVSCKASGYAFTSFLIEWVRQAPGQGLEWMGTSNPRTGGRKYKEKFRGRVTITADKSTSTAYMELSSLRSEDTAVYYCAREFFDYWGQGTTVTVSS VL: DIQMTQSPSSLSASVGDRVTITCRASKSISKYTAWYQQKPGKAPKLLIYAGSKLRSGVPSRFSGSGSGTDFTLTISSLQPEDFATYYCQQHNEYPYTFGGGTKVEIKR | 6.2 | 4.8 | 81.6 | 193 | 76.5 | 99.8 | -0.1 | 85.1 | 27.5 |  |  |  |  |  |  |
| Mab 3D8 (antibody, human IgG4 S228P, kappa, F234A L235A, V domains shown) VH: QVQLVQSGAEVKKPGSSVKVSCKASGYAFTSFLIEWVRQAPGQGLEWMGTSNPRTGGTKYKEKFRGRVTITADKSTSTAYMELSSLRSEDTAVYYCAREFFDYWGQGTTVTVSS VL: DIQMTQSPSSLSASVGDRVTITCRASKSISKYTAWYQQKPGKAPKLLIYAGSKLHSGVPSRFSGSGSGTDFTLTISSLQPEDFATYYCQQHNEYPYTFGGGTKVEIKR | 13.7 | 10.2 | 86.8 | 360 |  |  |  |  |  | 28.1 | 50.2 | 55.7 | 63.8 | 66.4 |  |
| Mab 34A9 (antibody, mouse IgG1, kappa, V domains shown) VH: QVQLKQSGAELVRPGTSVKVSCKASGYAFTNFLIEWLKQRPGQGLEWIGTINPETGGTKYNEKFRGKATLTADKSSSTAYMQLNSLTSDDSAVYFCVREFFDYWGQGTSLTVSS VL: ETTVTQSPSYLAASPGETITINCRASKSISKYLAWFQEKPGKTNKLLIYAGSTLHSGIPSRFSGSGSGTDFTLTISSLEPEDFAMYYCQQHNEYPYTFGGGTKLELKR |  | 58.9 | 55.2 |  |  |  |  |  |  | 4.8 | 14.1 | 23.6 | 30.8 | 39 |  |
| Mab 1G9 (antibody, mouse IgG1, kappa, V domains shown) VH: QVQLKQSGAELVRPGTSVKVSCKASGYAFTSFLIEWLKQRPGQGLEWIGTINPRTGGTKYNEKFRGKATLTADKSSSTAYMQLNSLTSDDSAVYFCVREFFDYWGQGTSLTVSS VL: ETTVTQSPSYLAASPGETITINCRASKSISKYLAWFQEKPGKTNKLLIYAGSKLHSGIPSRFSGSGSGTDFTLTISSLEPEDFAMYYCFQHNEYPYTFGGGTKLELKR | 18.8 | 9.2 | 69 |  |  |  |  |  |  | 24.3 | 49.9 | 61.8 | 62.4 | 67.9 |  |
| Fab 1G9 (Fab, V domains shown, also called mouse 1G9; mouse Fab 1G9) VH: QVQLKQSGAELVRPGTSVKVSCKASGYAFTSFLIEWLKQRPGQGLEWIGTINPRTGGTKYNEKFRGKATLTADKSSSTAYMQLNSLTSDDSAVYFCVREFFDYWGQGTSLTVSS VL: ETTVTQSPSYLAASPGETITINCRASKSISKYLAWFQEKPGKTNKLLIYAGSKLHSGIPSRFSGSGSGTDFTLTISSLEPEDFAMYYCFQHNEYPYTFGGGTKLELK |  |  |  |  |  |  |  |  |  |  |  |  |  |  | fold improvement in binding affinity against Fab 34A9 (FPN1-GFP [9]): ~5 fold |
